Laboratory results taken from article PMC314469, “Protein Interaction Networks by Proteome Peptide Scanning” (PLoS Biology, 2004).

T1: amphyphisin SH3 (AMPH_HUMAN), P49418
T1 chain: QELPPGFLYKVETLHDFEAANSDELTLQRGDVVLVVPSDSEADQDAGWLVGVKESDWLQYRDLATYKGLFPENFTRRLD


What was measured:
[1] = target: T1, amphyphisin SH3 (AMPH_HUMAN), P49418; test: SPOT array
[2] = target: endophilin SH3 (SH3G2_HUMAN), Q99962; test: SPOT array

Binder | normalised SPOT signal, Boehringer light units (BLU); mean over the file's lines of this peptide [1] | normalised SPOT signal, Boehringer light units (BLU); mean over the file's lines of this peptide [2]
KGTIPKRPWLSATP [O15043 393-406] | 35.5 | 516
KIGFFKRPLKKKME [P56199 1137-1150] | 149 | 200
KIIPPKKPPTKVVP [Q8WZ42 11374-11388] | 39 | 132
KIPKPPKPPKPPRP [Q9Y6N4 503-517] | 1310 | 9990
KISWLSRPRRVSLS [Q13577 12-25] | 1200 | 492
KITPPRRPHRSSSG [Q9NWB4 151-164] | 6680 | 2730
KIVDPKRPLMPEES [Q9BXK3 581-594] | 26.8 | 34
KKDSFERPRRVGAK [O95391 130-143] | 2590 | 106
KKPDIPRPIKINLL [Q9UHI5 412-425] | 159 | 307
ANKILNRPKRYNSG [P00740 37-50] | 476 | 198
KKPPLRRPHSVIGG [Q00537 66-79] | 15.8 | 81
KKPVPARPPPPTNF [AAH28697 228-242] | 150 | 11900
KKYLPKRPAKDDPE [Q15642 51-64] | 11.1 | 195
KLDTPLRPARQQPT [Q14775 472-485] | 2170 | 1390
KLEDPRRPDTSFLW [O75923 2014-2027] | 45.6 | 22.4
KLFRPRRPRSSSDA [O94820 221-234] | 46.6 | 316
KLGTLRRPEGPAEP [Q14289 12-25] | 24.6 | 10.4
